IntAct's records for PubMed 18192679

B1: Huntingtin-associated protein 1 (Homo sapiens), P54257-2 (parent)
chain: MRPKRLGRCCAGSRLGPGDPAALTCAPSPSASPAPEPSAQPQARGTGQRVGSRATSGSQFLSEARTGARPASEAGAKAGARRPSAFSAIQGDVRSMPDNSDAPWTRFVFQGPFGSRATGRGTGKAAGIWKTPAAYVGRRPGVSGPERAAFIRELEEALCPNLPPPVKKITQEDVKVMLYLLEELLPPVWESVTYGMVLQRERDLNTAARIGQSLVKQNSVLMEENSKLEALLGSAKEEILYLRHQVNLRDELLQLYSDSDEEDEDEEEEEEEKEAEEEQEEEEAEEDLQCAHPCDAPKLISQEALLHQHHCPQLEALQEKLRLLEEENHQLREEASQLDTLEDEEQMLILECVEQFSEASQQMAELSEVLVLRLENYERQQQEVARLQAQVLKLQQRCRMYGAETEKLQKQLASEKEIQMQLQEEETLPGFQETLAEELRTSLRRMISDPVYFMERNYEMPRGDTSSLRYDFRYSEDREQVRGFEAEEGLMLAADIMRGEDFTPAEEFVPQEELGAAKKVPAEEGVMEEAELVSEETEGWEEVELELDEATRMNVVTSALEASGLGPSHLDMNYVLQQLANWQDAHYRRQLRWKMLQKGECPHGALPAASRTSCRSSCR

Variants of: B1
Conditions: with hd_human HTT

Variant | effect of a mutation on the interaction
T441M | increasing interaction
